Among the data in publication PMC10696467 (The Journal of Biological Chemistry, 2023) are Kd values, retold here.

First the molecules themselves.
B1: speckle-type POZ protein (SPOP) WT, residues 28-359 (domain or fragment)
chain: KVVKFSYMWTINNFSFCREEMGEVIKSSTFSSGANDKLKWCLRVNPKGLDEESKDYLSLYLLLVSCPKSEVRAKFKFSILNAKGEETKAMESQRAYRFVQGKDWGFKKFIRRDFLLDEANGLLPDDKLTLFCEVSVVQDSVNISGQNTMNMVKVPECRLADELGGLWENSRFTDCCLCVAGQEFQAHKAILAARSPVFSAMFEHEMEESKKNRVEINDVEPEVFKEMMCFIYTGKAPNLDKMADDLLAAADKYALERLKVMCEDALCSNLSVENAAEILILADLHSADQLKTQAVDFINYHASDVLETSGWKSMVVSHPHLVAEAYRSLASA
B2: C-terminal intrinsically disordered region of DAXX (cDAXX), fluorescently labeled (domain or fragment)
chain: SPMSSLQISNEKNLEPGKQISRSSGEQQNKGRIVSPSLLSEEPLAPSSIDAESNGEQPEELTLEEESPVSQLFELEIEALPLDTPSSVETDISSSRKQSEEPFTTVLENGAGMVSSTSFNGGVSPHNWGDSGPPCKKSRKEKKQTGSGPLGNSYVERQRSVHEKNGKKICTLPSPPSPLASLAPVADSSTRVDSPSHGLVTSSLCIPSPARLSQTPHSQPPRPGTCKTSVATQCDPEEIIVLSDSD
modifications: fluorescently labeled (fluorescently tagged cDAXX construct; the labeling methods give Rhodamine Red, N-terminal labeling, for cDAXX)
B3: fPuc peptide (fluorescently labeled SPOP-binding motif from the substrate Puckered) (peptide)
peptide: ENLACDEVTSTTSSSST
HELM: PEPTIDE1{[O=C1OC2(c3ccc(O)cc3Oc3cc(O)ccc32)c2ccc(C(=O)[*:2])cc21].E.N.L.A.C.D.E.V.T.S.T.T.S.S.S.S.T.[am]}$$$$V2.0
SMILES: CC(C)C[C@H](NC(=O)[C@H](CC(N)=O)NC(=O)[C@H](CCC(=O)O)NC(=O)c1ccc2c(c1)C(=O)OC21c2ccc(O)cc2Oc2cc(O)ccc21)C(=O)N[C@@H](C)C(=O)N[C@@H](CS)C(=O)N[C@@H](CC(=O)O)C(=O)N[C@@H](CCC(=O)O)C(=O)N[C@H](C(=O)N[C@H](C(=O)N[C@@H](CO)C(=O)N[C@H](C(=O)N[C@H](C(=O)N[C@@H](CO)C(=O)N[C@@H](CO)C(=O)N[C@@H](CO)C(=O)N[C@@H](CO)C(=O)N[C@H](C(N)=O)[C@@H](C)O)[C@@H](C)O)[C@@H](C)O)[C@@H](C)O)C(C)C
B4: SPOP R354H, residues 28-359 (domain or fragment)
chain: B1 chain with R327H

Numbering of substitutions follows the chain as printed. In names and notes the source's numbering stands.

Series [1] concerns the molecule itself. In words: composite-gradient multiangle light scattering.
Series [2] addresses B1. In words: fluorescence polarisation. (In general: Fluorescence polarisation rises when a labelled molecule tumbles more slowly, as on binding a larger partner.)
Series [3] has as its target SPOP R221C, residues 28-359 (UniProt O43791 28-359, R221C). In words: fluorescence polarisation.
In series [4] the target is B4. The experiment in a line: fluorescence polarisation.
In series [5] the target is SPOP mutBACK (Y353E), residues 28-359 (UniProt O43791 28-359, Y353E). In words: fluorescence polarisation.

As usually defined, the Kd is the constant that tells how readily two partners part at equilibrium. B1: the dissociation constant Kd in series [1] is 2.7 µM.

On to B2, for which the Kd stood at 1.2 µM in series [2], 3.2 µM in series [3] and 3 µM in series [4].

In the case of B3, the Kd in series [2] was 9.8 µM; in series [3], 5.9 µM; in series [4] it was 5.1 µM; in series [5] it was 4.3 µM.

In series [1], B4 had a Kd of 26.9 µM.
